Results from paper PMC5286426, “The Calcium-Dependent Switch Helix of L-Plastin Regulates Actin Bundling” (Scientific Reports, 2017).

Molecular target: L-plastin EF construct (EF-hand headpiece domain, H5 region omitted) (human)
Assay: SPR; EF construct immobilised by its sole cysteine (Cys42) on a CM5 chip by thiol coupling; peptides injected; BIAcore X100; 10 mM Tris-HCl pH 7.5, 150 mM KCl, 1 mM CaCl2, 0.005% Tween-20; 30 uL/min, contact 1 min, 25 °C

Kd: 3.52 µM
Binder: Ac-STDVAKTFRKAINKKEGI-NH2 [synthetic H5 peptide representing the H5 region of LPL (residues 83-100)]
